These results are taken from patent publication US20110256088A1 (MIT, published 2011).

Bridge positions count the residues as written; N and C are the ends. Ends that are not written are not given here. * marks the point of attachment. Myristoyl = CCCCCCCCCCCCCC(=O)*

Test [1] addresses T1, p32 or gC1q receptor (human, UniProt Q07021 74-282).
T1 construct: whole, on cells; Endogenous protein on cell lines; also called p32 receptor; cell surface p32
T1 sequence (looked up): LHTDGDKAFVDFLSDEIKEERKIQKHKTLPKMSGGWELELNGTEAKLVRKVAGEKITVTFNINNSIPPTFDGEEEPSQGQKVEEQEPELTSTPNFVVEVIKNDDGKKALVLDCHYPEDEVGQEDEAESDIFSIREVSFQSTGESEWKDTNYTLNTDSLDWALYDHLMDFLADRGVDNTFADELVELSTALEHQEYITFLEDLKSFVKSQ
The experiment in a line: TAMRA-labeled tandem peptide incubated on MDA-MB-435 cells with p32 shRNA or control shRNA.

The target of test [2] is T1, p32 or gC1q receptor. The experiment in a line: free LyP-1 (5 to 20 µM) as competitor on HeLa cells, read out as GFP silencing.
Method: For the initial screen, HeLa cells stably expressing destabilized GFP were cultured in 96-well plates to ˜70-80% confluence. siRNA (0-100 nM) was incubated with 20-fold molar excess of tetramethylrhodamine-labelled tandem peptides in PBS for 10-15 min at room temperature, then incubated over cells in DMEM for 4 h at 37° C., after which the medium was replaced. The complexes were then added to HeLa cell cultures and incubated for 4 h at 37° C., after which the medium was replaced with 100 μL of fresh medium with 10% serum.

B1: TP-ARAL tandem peptide (peptide)
peptide: Myristoyl-GWTLNSAGYLLGKINLKALAALAKKILGGGGARALPSQRSR
modifications: also: TAMRA label, place not given here
notes: also called untargeted tandem peptide; control peptide (TP-ARAL)
Take B1: the binding result in test [1] is on record as “no binding”.

For the molecule CGNKRTRGC (disulfide 1-9 (inferred), also called unlabeled LyP-1 peptide) [free LyP-1 peptide], the binding result in test [2] is listed as “binds”.
